Measurements as given in IntAct's records for PubMed 21763312.

B1: Protein virB8 (Agrobacterium tumefaciens (strain C58 / ATCC 33970)), P17798 (parent)
chain: MKGSEYALLVARETLAEHYKEVEAFQTARAKSARRLSKVIAAVATIAVLGNVAQAFTIATMVPLIRLVPVYLWIRPDGTVDSEVSVSRLPATQEEAVVNASLWEYVRLRESYDADTAQYAYDLVSNFSAPMVRQNYQQFFNYPNPTSPQVILGKHGRLEVEHIASNDVTPGVQQIRYKRTLIVDGKMPMASTWTATVRYEKVTSLPGRLRLTNPGGLVVTSYQTSEDTVSNAGHSEP
partner: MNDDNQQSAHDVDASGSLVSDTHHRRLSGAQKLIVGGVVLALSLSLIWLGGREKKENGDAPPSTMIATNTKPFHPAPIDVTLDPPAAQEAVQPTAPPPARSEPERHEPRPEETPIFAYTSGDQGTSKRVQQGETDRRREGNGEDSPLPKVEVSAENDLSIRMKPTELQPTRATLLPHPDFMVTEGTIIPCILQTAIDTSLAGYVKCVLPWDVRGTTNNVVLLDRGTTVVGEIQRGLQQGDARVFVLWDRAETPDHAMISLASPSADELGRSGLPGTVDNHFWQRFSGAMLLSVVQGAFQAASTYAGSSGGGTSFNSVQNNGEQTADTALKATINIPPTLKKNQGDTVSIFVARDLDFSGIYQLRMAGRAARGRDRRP

Variants of: B1
Settings: with virba_agrfc virB10, P17800
MKGSEYALLVARETLAEHYKEVEAFQTARAKSARRLSKVIAAVATIAVLGNVAQWFTIATMVPLIRLVPVYLWIRPDGTVDSEVSVSRLPATQEEAVVNASLWEYVRLRESYDADTAQYAYDLVSNFSAPMVRQNYQQFFNYPNPTSPQVILGKHGRLEVEHIASNDVTPGVQQIRYKRTLIVDGKMPMASTWTATVRYEKVTSLPGRLRLTNPGGLVVTSYQTSEDTVSNAGHSEP [A55W] was tested, and the “effect of a mutation on the interaction” value was “increasing interaction”.
